Source: publication PMC9482650, “Quantitative fragmentomics allow affinity mapping of interactomes” (Nature Communications, 2022)

T1: APBA2_1, Q99767
T1 sequence (Q99767 563-664, limits assumed, looked up): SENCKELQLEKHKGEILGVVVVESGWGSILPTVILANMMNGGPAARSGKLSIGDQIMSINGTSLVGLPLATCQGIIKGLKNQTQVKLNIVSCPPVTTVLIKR

T2: ARHGEF11, O15085
T2 sequence (O15085 42-136, limits assumed, looked up): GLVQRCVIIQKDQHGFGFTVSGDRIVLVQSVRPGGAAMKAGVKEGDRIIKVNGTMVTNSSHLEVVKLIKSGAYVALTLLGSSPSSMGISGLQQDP

T3: DFNB31_1, Q9P202
T3 sequence (Q9P202 135-233, limits assumed, looked up): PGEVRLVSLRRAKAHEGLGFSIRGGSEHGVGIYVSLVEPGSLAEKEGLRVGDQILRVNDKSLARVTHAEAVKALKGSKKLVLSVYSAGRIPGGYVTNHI

T4: DFNB31_3, Q9P202
T4 sequence (Q9P202 811-907, limits assumed, looked up): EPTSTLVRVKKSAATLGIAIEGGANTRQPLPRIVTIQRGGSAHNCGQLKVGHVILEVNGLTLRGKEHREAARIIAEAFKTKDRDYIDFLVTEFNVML

T5: LIN7C, Q9NUP9
T5 sequence (Q9NUP9 88-185, limits assumed, looked up): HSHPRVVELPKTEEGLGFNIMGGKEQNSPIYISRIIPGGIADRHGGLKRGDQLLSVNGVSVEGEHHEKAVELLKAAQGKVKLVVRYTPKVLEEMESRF

T6: LRRC7, Q96NW7
T6 sequence (Q96NW7 1440-1537, limits assumed, looked up): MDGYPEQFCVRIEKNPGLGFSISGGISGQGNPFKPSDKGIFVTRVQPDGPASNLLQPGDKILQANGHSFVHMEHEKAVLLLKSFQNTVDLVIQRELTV

T7: NHERF3_4, Q5T2W1
T7 sequence (Q5T2W1 373-468, limits assumed, looked up): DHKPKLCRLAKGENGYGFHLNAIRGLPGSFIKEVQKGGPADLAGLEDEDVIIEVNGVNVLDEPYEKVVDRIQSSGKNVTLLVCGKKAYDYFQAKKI

T8: PDZRN3_1, Q9UPQ7
T8 sequence (Q9UPQ7 244-349, limits assumed, looked up): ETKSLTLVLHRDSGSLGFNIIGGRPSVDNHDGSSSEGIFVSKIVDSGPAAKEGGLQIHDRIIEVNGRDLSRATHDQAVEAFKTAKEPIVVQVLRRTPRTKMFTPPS

T9: PTPN13_1, Q12923
T9 sequence (Q12923 1088-1188, limits assumed, looked up): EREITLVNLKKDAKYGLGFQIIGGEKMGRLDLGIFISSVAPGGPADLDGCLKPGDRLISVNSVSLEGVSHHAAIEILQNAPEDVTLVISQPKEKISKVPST

T10: TIAM2, Q8IVF5
T10 sequence (Q8IVF5 885-986, limits assumed, looked up): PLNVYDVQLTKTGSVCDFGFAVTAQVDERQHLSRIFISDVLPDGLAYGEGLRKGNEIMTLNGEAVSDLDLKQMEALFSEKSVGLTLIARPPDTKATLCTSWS

T11: DLG3_1, Q92796
T11 sequence (Q92796 125-227, limits assumed, looked up): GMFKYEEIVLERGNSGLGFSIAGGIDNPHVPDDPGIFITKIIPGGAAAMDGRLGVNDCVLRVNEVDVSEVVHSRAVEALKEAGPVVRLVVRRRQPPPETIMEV

T12: MPDZ_12, O75970
T12 sequence (O75970 1857-1958, limits assumed, looked up): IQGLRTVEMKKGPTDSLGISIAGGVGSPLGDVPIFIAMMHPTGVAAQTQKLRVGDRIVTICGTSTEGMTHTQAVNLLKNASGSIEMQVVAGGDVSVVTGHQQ


Columns and labels:
Assay in all cases: holdup assay
Design in all cases: key: below the threshold = too weak to quantify, mostly under pKd 3.1 to 4
Settings in all cases: plain residues with an end cap or a label only (N-terminal biotin on a linker: ado-ado)
[1] = target: AHNAK1, Q09666
[2] = target: T1, APBA2_1, Q99767
[3] = target: T2, ARHGEF11, O15085
[4] = target: T3, DFNB31_1, Q9P202
[5] = target: T4, DFNB31_3, Q9P202
[6] = target: DLG1_2, Q12959
[7] = target: HTRA2, O43464
[8] = target: Inadl_1, Q8NI35
[9] = target: Inadl_9, Q8NI35
[10] = target: T5, LIN7C, Q9NUP9
[11] = target: LNX1_3, Q8TBB1
[12] = target: T6, LRRC7, Q96NW7
[13] = target: MAGI1_1, Q96QZ7
[14] = target: MAGI2_6, Q86UL8
[15] = target: MAST2, Q6P0Q8
[16] = target: NHERF2_2, Q15599
[17] = target: T7, NHERF3_4, Q5T2W1
[18] = target: NHERF4_2, Q86UT5
[19] = target: NHERF4_4, Q86UT5
[20] = target: T8, PDZRN3_1, Q9UPQ7
[21] = target: T9, PTPN13_1, Q12923
[22] = target: T10, TIAM2, Q8IVF5
[23] = target: DLG1_3, Q12959
[24] = target: T11, DLG3_1, Q92796
[25] = target: T12, MPDZ_12, O75970
[26] = target: TJP1_3, Q07157
TJP1_3, Q07157, sequence (Q07157 416-512): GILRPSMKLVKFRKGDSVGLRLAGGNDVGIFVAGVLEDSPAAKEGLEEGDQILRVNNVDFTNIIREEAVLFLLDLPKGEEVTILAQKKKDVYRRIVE

DLG1_2, Q12959, sequence (Q12959 314-412): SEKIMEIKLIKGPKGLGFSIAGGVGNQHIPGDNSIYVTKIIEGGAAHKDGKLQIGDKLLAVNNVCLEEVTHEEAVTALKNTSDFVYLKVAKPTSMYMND
HTRA2, O43464, sequence (O43464 355-458): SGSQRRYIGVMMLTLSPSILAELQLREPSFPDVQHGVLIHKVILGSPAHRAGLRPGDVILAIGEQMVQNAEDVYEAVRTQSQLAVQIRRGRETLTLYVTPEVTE
MAST2, Q6P0Q8, sequence (Q6P0Q8 1099-1202): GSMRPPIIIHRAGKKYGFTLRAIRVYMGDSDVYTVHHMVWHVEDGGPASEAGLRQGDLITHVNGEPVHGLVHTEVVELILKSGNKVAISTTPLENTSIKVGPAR
MAGI2_6, Q86UL8, sequence (Q86UL8 1141-1229): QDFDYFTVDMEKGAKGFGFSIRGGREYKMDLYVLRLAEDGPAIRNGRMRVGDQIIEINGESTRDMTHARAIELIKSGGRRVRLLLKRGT
DLG1_3, Q12959, sequence (Q12959 457-571): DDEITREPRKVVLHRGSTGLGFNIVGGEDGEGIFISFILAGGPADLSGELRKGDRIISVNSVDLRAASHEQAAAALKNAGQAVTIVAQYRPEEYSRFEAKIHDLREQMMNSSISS
NHERF2_2, Q15599, sequence (Q15599 142-238): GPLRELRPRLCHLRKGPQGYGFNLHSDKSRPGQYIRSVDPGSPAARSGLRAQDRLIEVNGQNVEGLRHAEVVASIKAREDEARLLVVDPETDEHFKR
MAGI1_1, Q96QZ7, sequence (Q96QZ7 1-106): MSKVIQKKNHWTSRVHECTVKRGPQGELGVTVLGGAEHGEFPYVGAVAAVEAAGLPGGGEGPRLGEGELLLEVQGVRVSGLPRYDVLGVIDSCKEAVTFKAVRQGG
NHERF4_4, Q86UT5, sequence (Q86UT5 464-550): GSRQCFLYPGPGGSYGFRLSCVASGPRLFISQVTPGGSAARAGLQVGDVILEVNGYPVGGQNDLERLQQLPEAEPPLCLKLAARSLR
AHNAK1, Q09666, sequence (Q09666 4-100): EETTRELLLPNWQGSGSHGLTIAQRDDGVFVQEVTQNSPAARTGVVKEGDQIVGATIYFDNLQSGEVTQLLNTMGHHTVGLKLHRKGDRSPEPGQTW
Inadl_9, Q8NI35, sequence (Q8NI35 1530-1615): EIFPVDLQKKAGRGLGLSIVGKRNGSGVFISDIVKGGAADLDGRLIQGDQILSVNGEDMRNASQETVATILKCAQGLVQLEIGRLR
NHERF4_2, Q86UT5, sequence (Q86UT5 220-308): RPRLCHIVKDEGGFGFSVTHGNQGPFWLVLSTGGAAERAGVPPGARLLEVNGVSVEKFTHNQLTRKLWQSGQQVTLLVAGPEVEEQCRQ
LNX1_3, Q8TBB1, sequence (Q8TBB1 500-596): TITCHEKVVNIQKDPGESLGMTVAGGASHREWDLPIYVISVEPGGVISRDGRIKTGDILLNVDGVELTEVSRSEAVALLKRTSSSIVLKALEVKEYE
Inadl_1, Q8NI35, sequence (Q8NI35 113-229): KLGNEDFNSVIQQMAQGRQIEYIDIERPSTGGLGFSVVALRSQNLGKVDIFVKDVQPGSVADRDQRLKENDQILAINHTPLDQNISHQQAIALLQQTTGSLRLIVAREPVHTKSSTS

| Binder | pKd [1] | pKd [2] | pKd [3] | pKd [4] | pKd [5] | pKd [6] | pKd [7] | pKd [8] | pKd [9] | pKd [11] | pKd [12] | pKd [13] | pKd [14] | pKd [15] | pKd [16] | pKd [17] | pKd [18] | pKd [19] | pKd [20] | pKd [21] | further results |
| --- | --- | --- | --- | --- | --- | --- | --- | --- | --- | --- | --- | --- | --- | --- | --- | --- | --- | --- | --- | --- | --- |
| LRYARPADAL [PPP1R3G, B7ZBB8] | below the threshold | below the threshold | below the threshold | below the threshold | below the threshold | 3.53 | below the threshold | below the threshold | below the threshold | below the threshold | below the threshold | below the threshold | below the threshold | below the threshold | below the threshold | below the threshold | below the threshold | below the threshold | below the threshold | below the threshold | pKd [23]: below the threshold; pKd [24]: below the threshold; pKd [10]: below the threshold; pKd [25]: below the threshold; pKd [22]: below the threshold; pKd [26]: below the threshold |
| SKSLERATQL [COMMD3, Q9UBI1] | below the threshold | below the threshold | 4.57 | 3.74 | 4.25 | 3.92 | below the threshold | below the threshold | below the threshold | below the threshold | below the threshold | below the threshold | 3.79 | 5.7 | 4.58 | 4.67 | below the threshold | below the threshold | 4.11 | below the threshold | pKd [23]: 3.97; pKd [24]: 3.72; pKd [10]: below the threshold; pKd [25]: below the threshold; pKd [22]: 3.88; pKd [26]: 3.51 |
| KSTTRSSSSC [NDE1, Q9NXR1;Q9NXR1-2] | below the threshold | below the threshold | below the threshold | below the threshold |  | below the threshold | below the threshold | below the threshold | below the threshold | below the threshold | below the threshold | below the threshold | below the threshold | 4.06 | below the threshold | below the threshold | below the threshold | below the threshold | below the threshold | below the threshold | pKd [23]: below the threshold; pKd [24]: below the threshold; pKd [25]: below the threshold; pKd [26]: below the threshold |

Now from value to binder, other results behind:

| pKd [1] | pKd [2] | pKd [3] | pKd [4] | pKd [5] | pKd [6] | pKd [7] | pKd [8] | pKd [9] | pKd [11] | pKd [12] | pKd [13] | pKd [14] | pKd [15] | pKd [16] | pKd [17] | pKd [18] | pKd [19] | pKd [20] | pKd [21] | Binder | further results |
| --- | --- | --- | --- | --- | --- | --- | --- | --- | --- | --- | --- | --- | --- | --- | --- | --- | --- | --- | --- | --- | --- |
| below the threshold | below the threshold | below the threshold | below the threshold | below the threshold | below the threshold | below the threshold | below the threshold | below the threshold | below the threshold | below the threshold | below the threshold | below the threshold | below the threshold | below the threshold | below the threshold | below the threshold | below the threshold | below the threshold | below the threshold | EYRKDNKVAA [LSM14A, Q8ND56;Q8ND56-2] | pKd [10]: below the threshold; pKd [22]: 4.1 |
| below the threshold | below the threshold | below the threshold | below the threshold | 3.82 | 3.98 | 3.48 | below the threshold | below the threshold | below the threshold | below the threshold | below the threshold | below the threshold | 4.1 | below the threshold | below the threshold | below the threshold | 3.78 | below the threshold | 3.7 | GDHLDRRVVL [VAC14, Q08AM6] | pKd [23]: below the threshold; pKd [24]: below the threshold; pKd [10]: 4.04; pKd [25]: 3.75; pKd [22]: below the threshold; pKd [26]: below the threshold |
